In patent US20260116920A1 (PEPTIDREAM, published 2026):
Each block holds one binder with its values, some of them ahead of it. Starred links: 1 amine or outer side, 2 acyl side, 3 side chain; linkers in the order of their positions; H or OH if unused. Positions of bridges follow the written chain, without caps; N, C: chain ends. Non-standard residues stand in square brackets, D forms with d. Primed or numbered codes have the meaning given here. No end group written: not given here. *: point of attachment. MePEG4c″ = K(MePEG4c) = (S)-20-amino-14-oxo-2,5,8,11-tetraoxa-15-azahenicosane-21-oic acid (Lys side chain acylated with methoxy-PEG4 acid), COCCOCCOCCOCCC(=O)*; E(PEG8Me) = (S)-30-amino-27-oxo-2,5,8,11,14,17,20,23-octaoxa-26-azahentriacontane-31-oic acid, COCCOCCOCCOCCOCCOCCOCCOCCNC(=O)CC[C@H](N[*:1])C(=O)[*:2]; F4aao = (S)-2-amino-3-(4-(carboxymethoxy)phenyl)propanoic acid, O=C([C@H](Cc1ccc(OCC(=O)[*:3])cc1)N[*:1])[*:2]; MePEG4c = K(MePEG4c) = (S)-20-amino-14-oxo-2,5,8,11-tetraoxa-15-azahenicosane-21-oic acid, COCCOCCOCCOCCC(=O)*; Phe(4-OMe)″ = (S)-2-amino-3-(4-methoxyphenyl)propanoic acid (F4OMe), COc1ccc(C[C@H](N[*:1])C(=O)[*:2])cc1; Phe(4-OMe) = F4OMe = (S)-2-amino-3-(4-methoxyphenyl)propanoic acid, COc1ccc(C[C@H](N[*:1])C(=O)[*:2])cc1; Trp(1-CH2CO) = O=C([C@H](Cc1cn(CC(=O)[*:3])c2ccccc12)N[*:1])[*:2]; Trp(5-Cl) = N[C@@H](Cc1c[nH]c2ccc(Cl)cc12)C(=O)O; Phe(3-COOH) = N[C@@H](Cc1cccc(C(=O)O)c1)C(=O)O; NMePhe(3-Cl) = CN[C@@H](Cc1cccc(Cl)c1)C(=O)O; NMePhe(4-F) = CN[C@@H](Cc1ccc(F)cc1)C(=O)O; 3Pal(6-NH2) = Nc1ccc(C[C@H](N)C(=O)O)cn1; NMeW = CN[C@@H](Cc1c[nH]c2ccccc12)C(=O)O; NMe3Pal = CN[C@@H](Cc1cccnc1)C(=O)O; NMe4Pal = CN[C@@H](Cc1ccncc1)C(=O)O; NMeY = CN[C@@H](Cc1ccc(O)cc1)C(=O)O; NMeR = CN[C@@H](CCCNC(=N)N)C(=O)O; NMeF = CN[C@@H](Cc1ccccc1)C(=O)O; 3Pal = N[C@@H](Cc1cccnc1)C(=O)O; 4Pal = N[C@@H](Cc1ccncc1)C(=O)O; NMeA = CN[C@@H](C)C(=O)O

Target: T1, human transferrin receptor (hTfR) (human, UniProt P02786 89-760)
T1 construct: used as 0.5 uM hTfR dimer solution, immobilised on an NTA sensor chip (Ni capture plus EDC/NHS coupling); also called human TfR; TfR1
Test: SPR; B = KD 1-100 nM
Experimental: NTA sensor chip (Global Life Sciences Technologies Japan K.K.) was inserted into BiacoreT200 (Global Life Sciences Technologies Japan K.K.), then the priming operation was performed three times by using running buffer containing: 10 mM HEPES pH 8.0 (Nacalai Tesque, Inc.), 150 mM NaCl (Nacalai Tesque, Inc.), 0.05% Tween 20 (Nacalai Tesque, Inc.), 0.1% BSA (SIGMA-ALDRICH) and 1.0% DMSO (FUJIFILM Wako Pure Chemical Corporation), and equilibrated at a flow rate of 30 μL/min. 350 mM EDTA solution was reacted at a flow rate of 10 μL/min for 60 seconds, 0.5 mM […] solution (Kishida Chemical Co., Ltd.) was reacted at a flow rate of 10 μL/min for 60 seconds, and then the NTA sensor chip was washed with 3 mM EDTA solution (Nacalai Tesque, Inc.) at a flow rate of 10 μL/min for 60 seconds. After mixing 50 μL each of 60 mM EDC solution (Global Life Science Technologies Japan K.K.) and 650 mM NHS solution (Global Life Science Technologies Japan K.K.), the reaction was carried out at a flow rate of 10 μL/min for 420 seconds. 150 μL of 0.5 μM hTfR dimer solution was prepared by dilution with running buffer and reacted at a flow rate of 10 μL/min for 300 seconds to immobilize hTfR on the NTA sensor chip. For the human transferrin receptor (hTfR), recombinant hTfR described in Example 2 of WO2018/124121 was used. After immobilization, capping was performed by reacting with 1.0 M ethanolamine solution (Global Life Sciences Technologies Japan K.K.) at a flow rate of 10 μL/min for 420 seconds. Peptide lysate prepared in DMSO solution to 10 mM was diluted with running buffer to be a final concentration of 10 μM peptide lysate, then peptide solutions of 100 nM, 50 nM, 25 nM, 10 nM, and 5 nM were prepared. Using the above samples, the kinetics of the peptide against hTfR was obtained by SPR measurement.
The kinetic evaluation model was single-cycle kinetics, and curve fitting was performed using Biacore T200 Evaluation Software Version 3.0 (Global Life Science Technologies Japan K.K.). The binding of the peptide to hTfR was evaluated by performing curve fitting on the obtained sensorgram by least squares method and obtaining the KD value.

T1 sequence (P02786 89-760 limits assumed): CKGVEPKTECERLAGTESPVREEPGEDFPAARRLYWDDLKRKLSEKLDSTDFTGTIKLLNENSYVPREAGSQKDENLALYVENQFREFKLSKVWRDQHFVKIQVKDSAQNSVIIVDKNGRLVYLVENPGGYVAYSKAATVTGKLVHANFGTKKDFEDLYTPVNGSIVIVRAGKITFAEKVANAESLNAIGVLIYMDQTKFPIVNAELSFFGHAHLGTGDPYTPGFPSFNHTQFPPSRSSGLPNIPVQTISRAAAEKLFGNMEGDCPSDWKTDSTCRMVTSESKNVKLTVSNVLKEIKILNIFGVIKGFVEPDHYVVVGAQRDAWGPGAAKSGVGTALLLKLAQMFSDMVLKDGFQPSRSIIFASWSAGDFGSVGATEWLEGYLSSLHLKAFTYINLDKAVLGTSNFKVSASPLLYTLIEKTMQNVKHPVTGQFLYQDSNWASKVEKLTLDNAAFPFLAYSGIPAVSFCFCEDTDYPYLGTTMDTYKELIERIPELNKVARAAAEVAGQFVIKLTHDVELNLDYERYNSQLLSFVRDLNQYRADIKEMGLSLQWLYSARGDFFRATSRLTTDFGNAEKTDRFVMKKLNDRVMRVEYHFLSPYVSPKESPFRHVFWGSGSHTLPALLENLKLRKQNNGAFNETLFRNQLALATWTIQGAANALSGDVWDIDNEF

KD: 1 to 100 nM
B1: 894_0260 (peptide)
peptide: {CH2CO}-AV[NMePhe(4-F)]V[NMeW]NYYIIR[dR]FYC-NH2
modifications: thioether N-15; not fully specified (residue 14); also: linker PEG4c, place not given here

KD: 1 to 100 nM
B2: 894_0296 (peptide)
peptide: {CH2CO}-AV[NMeF]VWNY[F4aao]IIRRYYC-NH2
modifications: thioether N-15; not fully specified (residue 14); also: linker PEG4c

KD: 1 to 100 nM
B3: 894_0299 (peptide)
peptide: {CH2CO}-AV[NMePhe(3-Cl)]V[Trp(1-CH2CO)]NY[F4aao]IIR[E(PEG8Me)]F[NMeY]C
modifications: thioether N-15; not fully specified (C-terminus)

KD: 1 to 100 nM
B4: 894_0284 (peptide)
peptide: {CH2CO}-AV[NMeF]VWNYYII[NMeR]RFYC-NH2
modifications: thioether N-15; not fully specified (residue 14); also: linker PEG4c

KD: 1 to 100 nM
B5: 894_0264 (peptide)
peptide: {CH2CO}-AV[NMeF]VWNYYIIRK(MePEG4c)FYC-NH2
modifications: thioether N-15; not fully specified (residue 14)

KD: 1 to 100 nM
B6: 894_0315 (peptide)
peptide: {CH2CO}-AV[NMePhe(3-Cl)]VWN[3Pal(6-NH2)][Phe(4-OMe)″]IIRRF[NMeY]C-NH2
modifications: thioether N-15; also: linker PEG4c

KD: 1 to 100 nM
B7: 894_0297 (peptide)
peptide: {CH2CO}-AV[NMeF]V[Trp(1-CH2CO)]NY[F4aao]IIRRYYC-NH2
modifications: thioether N-15; not fully specified (residue 14); also: linker PEG4c

KD: 1 to 100 nM
B8: 894_0306 (peptide)
peptide: {CH2CO}-AV[NMePhe(3-Cl)]V[Trp(1-CH2CO)]NY[3Pal]IIRR[4Pal][NMeY]C
modifications: thioether N-15; not fully specified (C-terminus)

KD: 1 to 100 nM
B9: 894_0314 (peptide)
peptide: {CH2CO}-AV[NMe4Pal]VWNY[Phe(4-OMe)″]IIRRF[NMeY]C-NH2
modifications: thioether N-15; also: linker PEG4c

KD: 1 to 100 nM
B10: 894_0309 (peptide)
peptide: {CH2CO}-AV[NMePhe(3-Cl)]VWNY[3Pal]IIRR[4Pal][NMeY]C
modifications: thioether N-15; not fully specified (C-terminus)

KD: 1 to 100 nM
B11: 894_0263 (peptide)
peptide: {CH2CO}-AV[NMeF]VWNYYIIK(MePEG4c)RFYC-NH2
modifications: thioether N-15; not fully specified (residue 14)

KD: 1 to 100 nM
B12: 894_0307 (peptide)
peptide: {CH2CO}-AV[NMePhe(3-Cl)]V[Trp(1-CH2CO)]N[3Pal(6-NH2)][3Pal]IIRR[4Pal][NMeY]C
modifications: thioether N-15; not fully specified (C-terminus)

KD: 1 to 100 nM
B13: 894_0301 (peptide)
peptide: {CH2CO}-AV[NMePhe(3-Cl)]V[Trp(1-CH2CO)]NY[F4aao]II[E(PEG8Me)]R[Phe(3-COOH)][NMeY]C
modifications: thioether N-15; not fully specified (C-terminus)

KD: 1 to 100 nM
B14: 894_0267 (peptide)
peptide: {CH2CO}-AV[NMePhe(4-F)]V[Trp(5-Cl)]NYYII[NMeR]K(MePEG4c)FYC-NH2
modifications: thioether N-15; not fully specified (residue 14)

KD: 1 to 100 nM
B15: 894_0313 (peptide)
peptide: {CH2CO}-AV[NMe3Pal]VWNY[Phe(4-OMe)″]IIRRF[NMeY]C-NH2
modifications: thioether N-15; also: linker PEG4c

KD: 1 to 100 nM
B16: 894_0268 (peptide)
peptide: {CH2CO}-AV[NMePhe(4-F)]V[Trp(5-Cl)]NY[Phe(4-OMe)]II[NMeR]K(MePEG4c)FYC-NH2
modifications: thioether N-15; not fully specified (residue 14)

KD: 1 to 100 nM
B17: 894_0287 (peptide)
peptide: {CH2CO}-[NMeA]V[NMePhe(3-Cl)]V[NMeW]NY[Phe(4-OMe)]IIR[dA]FYC-NH2
modifications: thioether N-15; not fully specified (residue 14); also: linker PEG4c

KD: 1 to 100 nM
B18: 894_0284 (peptide)
peptide: {CH2CO}-AV[NMeF]VWNYYII[NMeR]RFYC-NH2
modifications: thioether N-15; not fully specified (residue 14); also: linker PEG4c

KD: 1 to 100 nM
B19: 894_0302 (peptide)
peptide: {CH2CO}-AV[NMePhe(3-Cl)]V[Trp(1-CH2CO)]NY[F4aao]IIQRF[NMeY]C
modifications: thioether N-15; not fully specified (C-terminus)

KD: 1 to 100 nM
B20: 894_0282 (peptide)
peptide: {CH2CO}-AV[NMeF]VWNYYIIR[dR]FYC-NH2
modifications: thioether N-15; not fully specified (residue 14); also: linker PEG4c

KD: 1 to 100 nM
B21: 894_0271 (peptide)
peptide: {CH2CO}-AV[NMePhe(4-F)]V[NMeW]NYYII[NMeR]K(MePEG4c″)FYC-NH2
modifications: thioether N-15; not fully specified (residue 14)

KD: 1 to 100 nM
B22: 894_0312 (peptide)
peptide: {CH2CO}-AV[NMePhe(3-Cl)]VWNY[4Pal]IIRR[4Pal][NMeY]C-NH2
modifications: thioether N-15; also: linker PEG4c

KD: 1 to 100 nM
B23: 894_0310 (peptide)
peptide: {CH2CO}-AV[NMePhe(3-Cl)]VWN[3Pal(6-NH2)][3Pal]IIRR[4Pal][NMeY]C-NH2
modifications: thioether N-15; also: linker PEG4c

KD: 1 to 100 nM
B24: 894_0298 (peptide)
peptide: {CH2CO}-AV[NMePhe(3-Cl)]V[Trp(1-CH2CO)]NY[F4aao]II[E(PEG8Me)]RF[NMeY]C
modifications: thioether N-15; not fully specified (C-terminus)

KD: 1 to 100 nM
B25: 894_0308 (peptide)
peptide: {CH2CO}-AV[NMePhe(3-Cl)]V[Trp(1-CH2CO)]N[3Pal(6-NH2)][Phe(4-OMe)″]IIRR[4Pal][NMeY]C
modifications: thioether N-15; not fully specified (C-terminus)

KD: 1 to 100 nM
B26: 894_0269 (peptide)
peptide: {CH2CO}-AV[NMePhe(4-F)]V[NMeW]NYYIIK(MePEG4c″)[dR]FYC-NH2
modifications: thioether N-15; not fully specified (residue 14)

KD: 1 to 100 nM
B27: 894_0270 (peptide)
peptide: {CH2CO}-AV[NMePhe(4-F)]V[NMeW]NY[Phe(4-OMe)]IIK(MePEG4c″)[dR]FYC-NH2
modifications: thioether N-15; not fully specified (residue 14)

KD: 1 to 100 nM
B28: 894_0272 (peptide)
peptide: {CH2CO}-AV[NMePhe(4-F)]V[NMeW]NY[Phe(4-OMe)]II[NMeR]K(MePEG4c″)FYC-NH2
modifications: thioether N-15; not fully specified (residue 14)

KD: 1 to 100 nM
B29: 894_0311 (peptide)
peptide: {CH2CO}-AV[NMePhe(3-Cl)]VWN[3Pal(6-NH2)][Phe(4-OMe)″]IIRR[4Pal][NMeY]C-NH2
modifications: thioether N-15; also: linker PEG4c

KD: 1 to 100 nM
B30: 894_0303 (peptide)
peptide: {CH2CO}-AV[NMePhe(3-Cl)]V[Trp(1-CH2CO)]NY[F4aao]IIRQF[NMeY]C
modifications: thioether N-15; not fully specified (C-terminus)

KD: 1 to 100 nM
B31: 894_0282 (peptide)
peptide: {CH2CO}-AV[NMeF]VWNYYIIR[dR]FYC-NH2
modifications: thioether N-15; not fully specified (residue 14); also: linker PEG4c
